Experimental data: patent publication US20240132615A1 (ICHNOS SCIENCES, published 2024)

Key:
[1] = target: recombinant cynomolgus monkey BCMA protein (Acrobiosystems BCA-C52H7) (cynomolgus monkey, UniProt A0A2K5UD97 1-53); assay: SPR, Fab as analyte, immobilised cynomolgus BCMA, 1:1 Langmuir
[2] = target: T1, recombinant human BCMA protein (Acrobiosystems BCA-H522y) (human, UniProt Q02223 1-54); assay: SPR, Fab as analyte, immobilised human BCMA, 1:1 Langmuir
T1 construct: bought protein
T1 sequence (looked up): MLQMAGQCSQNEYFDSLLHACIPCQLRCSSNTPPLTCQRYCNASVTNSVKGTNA

[3] = target: T2, Biotinylated Human BCMA/TNFRSF17 Protein, His, Avitag (Acrobiosystems BCA-H82E4) (human, UniProt Q02223 1-54, biotinylated); assay: SPR, Fab as analyte, biotin-captured human BCMA
T2 construct: bought protein; also called biotinylated recombinant human BCMA protein; hBCMA
T2 sequence (looked up): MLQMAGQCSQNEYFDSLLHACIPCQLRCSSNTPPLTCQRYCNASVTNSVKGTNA

[4] = target: T3, human BCMA on cells (NCI-H929, NCI-H929 CD38 KO, MOLP-8) (human, UniProt Q02223 1-184); assay: flow cytometry, NCI-H929 cells, one-site fit
T3 construct: whole, on cells; endogenous BCMA of myeloma cell lines
T3 sequence (looked up): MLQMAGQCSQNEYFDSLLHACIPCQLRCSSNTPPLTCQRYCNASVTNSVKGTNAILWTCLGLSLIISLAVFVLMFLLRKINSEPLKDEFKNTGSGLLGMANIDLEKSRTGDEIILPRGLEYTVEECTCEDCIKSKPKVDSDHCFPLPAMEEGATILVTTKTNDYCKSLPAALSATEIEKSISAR

[5] = target: T3, human BCMA on cells (NCI-H929, NCI-H929 …); assay: flow cytometry, NCI-H929 cells
[6] = target: T4, biotinylated recombinant cynomolgus monkey BCMA Fc fusion protein (Acrobiosystems BCA-C82F4) (cynomolgus monkey, UniProt A0A2K5UD97 1-53); assay: SPR, Fab as analyte, biotin-captured cynomolgus BCMA-Fc
T4 construct: bought protein; not shown: Fc of the bought fusion protein, not described

[7] = target: T5, Biotinylated Human CD38 Protein, Avitag, His Tag (Acrobiosystems CD8-H82E7) (human, UniProt P28907 43-300, biotinylated); assay: SPR, Fab as analyte, biotin-captured human CD38
T5 construct: bought protein; also called biotinylated recombinant human CD38 protein; human CD38-avi-his

[8] = target: T6, recombinant cynomolgus monkey CD38-ECD-C-his protein (cynomolgus monkey, UniProt Q5VAN0 45-301); assay: SPR, Fab as analyte, captured cynomolgus CD38-his
T6 construct: made in house; Q5VAN0 residues 43-301 (residue 44 deleted) with C-terminal 6-His; also called cynomolgus monkey CD38-C-His; recombinant cynomolgus monkey CD38 protein

T4 sequence (A0A2K5UD97 entry or part of it): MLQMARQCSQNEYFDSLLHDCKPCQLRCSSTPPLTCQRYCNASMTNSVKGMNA
recombinant cynomolgus monkey BCMA protein (Acrobiosystems BCA-C52H7), sequence (A0A2K5UD97 entry or part of it): as above

B1: anti-BCMA-PP02-D3 FAB (Fab, V domains shown)
VH: EVQLVESGGGLIQPGGSLRLSCAASGFIFSHYEMNWVRQAPGKGLEWVSAIGQGGNTVYADSVKGRFTISRDNSKNTLYLQMNSLRAEDTAVYYCARVPYSYSGYSGADIWGQGTLVTVSS
VL: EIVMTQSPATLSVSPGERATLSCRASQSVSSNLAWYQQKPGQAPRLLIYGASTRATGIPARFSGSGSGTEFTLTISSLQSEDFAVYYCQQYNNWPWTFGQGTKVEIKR
notes: Fab; also called anti-BCMA-D3; anti-BCMA-D3 Fab
- Kd [1]: 40 nM
- Kd [2]: 15 nM

B2: Anti-BCMA-E6-PP02-D2 FAB (Fab, V domains shown)
VH: EVQLLESGGGLVQPGGSLRLSCAASGFTFSYYAMTWVRQAPGKGLEWVSTISQQNEQTKYADSVKGRFTISRDNSKNTLYLQMNSLRAEDTAVYYCARSPYSYLHGYYGFDYWGQGTLVTVSS
VL: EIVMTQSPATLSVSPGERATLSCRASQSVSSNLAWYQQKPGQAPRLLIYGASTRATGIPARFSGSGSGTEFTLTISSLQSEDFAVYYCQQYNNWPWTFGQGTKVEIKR
notes: Fab
- Kd [3]: 0.342 nM
- Kd [4]: 6.58 nM
- Maximum binding (RFI) [5]: 36300 RFI
- Kd [6]: 0.97 nM

B3: Anti-BCMA-E6-PP02-A3 FAB (Fab, V domains shown)
VH: EVQLLESGGGLVQPGGSLRLSCAASGFTFSYYAMTWVRQAPGKGLEWVSTISSQNDITKYADSVKGRFTISRDNSKNTLYLQMNSLRAEDTAVYYCARSPYSYLHGYYGFDYWGQGTLVTVSS
VL: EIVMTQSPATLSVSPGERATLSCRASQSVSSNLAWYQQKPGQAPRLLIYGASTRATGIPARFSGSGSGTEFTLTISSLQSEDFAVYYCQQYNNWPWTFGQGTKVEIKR
notes: Fab
- Kd [3]: 0.33 nM
- Kd [4]: 6.37 nM
- Maximum binding (RFI) [5]: 40200 RFI
- Kd [6]: 0.915 nM

B4: Anti-BCMA-E6-PP02-B1 FAB (Fab, V domains shown)
VH: EVQLLESGGGLVQPGGSLRLSCAASGFTFSYYAMTWVRQAPGKGLEWVSTVSQAGYDTKYADSVKGRFTISRDNSKNTLYLQMNSLRAEDTAVYYCARSPYSYLHGYYGFDYWGQGTLVTVSS
VL: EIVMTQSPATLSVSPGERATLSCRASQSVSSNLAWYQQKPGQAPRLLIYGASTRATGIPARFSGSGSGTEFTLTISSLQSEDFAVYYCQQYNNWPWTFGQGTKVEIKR
notes: Fab; also called anti-BCMA-E6-B1; E6-B1
- Kd [3]: 0.182 nM
- Kd [4]: 3.72 nM
- Maximum binding (RFI) [5]: 34700 RFI
- Kd [6]: 0.51 nM

B5: Anti-BCMA-E6-PP02-B4 FAB (Fab, V domains shown)
VH: EVQLLESGGGLVQPGGSLRLSCAASGFTFSYYAMTWVRQAPGKGLEWVSTISQPGFDAKYADSVKGRFTISRDNSKNTLYLQMNSLRAEDTAVYYCARSPYSYLHGYYGFDYWGQGTLVTVSS
VL: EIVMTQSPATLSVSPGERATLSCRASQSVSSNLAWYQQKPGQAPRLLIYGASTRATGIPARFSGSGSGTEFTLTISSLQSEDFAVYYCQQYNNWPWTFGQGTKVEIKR
notes: Fab
- Kd [3]: 0.086 nM
- Kd [4]: 5.49 nM
- Maximum binding (RFI) [5]: 43500 RFI
- Kd [6]: 0.857 nM

B6: Anti-BCMA-E6-PP02-C7 FAB (Fab, V domains shown)
VH: EVQLLESGGGLVQPGGSLRLSCAASGFTFSYYAMTWVRQAPGKGLEWVSTISQSGLVPKYADSVKGRFTISRDNSKNTLYLQMNSLRAEDTAVYYCARSPYSYLHGYYGFDYWGQGTLVTVSS
VL: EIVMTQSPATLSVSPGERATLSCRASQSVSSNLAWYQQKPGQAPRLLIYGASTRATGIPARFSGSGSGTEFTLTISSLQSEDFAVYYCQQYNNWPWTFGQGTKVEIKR
notes: Fab
- Kd [3]: 0.3 nM
- Kd [4]: 6.83 nM
- Maximum binding (RFI) [5]: 38600 RFI
- Kd [6]: 1.19 nM

B7: Anti-BCMA-E6-PP02-E6 FAB (Fab, V domains shown)
VH: EVQLLESGGGLVQPGGSLRLSCAASGFTFSYYAMTWVRQAPGKGLEWVSTISQAGRDFKYADSVKGRFTISRDNSKNTLYLQMNSLRAEDTAVYYCARSPYSYLHGYYGFDYWGQGTLVTVSS
VL: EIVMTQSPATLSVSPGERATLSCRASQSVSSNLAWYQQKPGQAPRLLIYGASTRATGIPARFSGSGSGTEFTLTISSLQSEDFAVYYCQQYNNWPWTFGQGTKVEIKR
notes: Fab; also called anti-BCMA-E6-E6; E6-E6
- Kd [3]: 0.169 nM
- Kd [4]: 5.13 nM
- Maximum binding (RFI) [5]: 43200 RFI
- Kd [6]: 0.615 nM

B8: Anti-BCMA-E6-PP02-F7 FAB (Fab, V domains shown)
VH: EVQLLESGGGLVQPGGSLRLSCAASGFTFSYYAMTWVRQAPGKGLEWVSTIGQRGFQTKYADSVKGRFTISRDNSKNTLYLQMNSLRAEDTAVYYCARSPYSYLHGYYGFDYWGQGTLVTVSS
VL: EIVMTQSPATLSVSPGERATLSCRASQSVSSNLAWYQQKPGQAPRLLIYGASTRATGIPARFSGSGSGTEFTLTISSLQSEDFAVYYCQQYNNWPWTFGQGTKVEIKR
notes: Fab
- Kd [3]: 0.22 nM
- Kd [4]: 5.53 nM
- Maximum binding (RFI) [5]: 44700 RFI
- Kd [6]: 0.964 nM

B9: Anti-BCMA-E6-PP02-G6 FAB (Fab, V domains shown)
VH: EVQLLESGGGLVQPGGSLRLSCAASGFTFSYYAMTWVRQAPGKGLEWVSTIAQRGGQTKYADSVKGRFTISRDNSKNTLYLQMNSLRAEDTAVYYCARSPYSYLHGYYGFDYWGQGTLVTVSS
VL: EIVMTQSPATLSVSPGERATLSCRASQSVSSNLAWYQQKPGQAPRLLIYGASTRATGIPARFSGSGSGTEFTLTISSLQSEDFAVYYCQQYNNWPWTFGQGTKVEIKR
notes: Fab; also called anti-BCMA-E6-G6; E6-G6
- Kd [3]: 0.33 nM
- Kd [4]: 5.78 nM
- Maximum binding (RFI) [5]: 46500 RFI
- Kd [6]: 2.26 nM

B10: Anti-BCMA-E6-PP02-G7 FAB (Fab, V domains shown)
VH: EVQLLESGGGLVQPGGSLRLSCAASGFTFSYYAMTWVRQAPGKGLEWVSTISQQWDVTKYADSVKGRFTISRDNSKNTLYLQMNSLRAEDTAVYYCARSPYSYLHGYYGFDYWGQGTLVTVSS
VL: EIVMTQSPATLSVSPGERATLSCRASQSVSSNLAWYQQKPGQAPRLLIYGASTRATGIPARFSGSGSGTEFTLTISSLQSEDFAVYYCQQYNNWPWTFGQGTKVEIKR
notes: Fab
- Kd [3]: 0.061 nM
- Kd [4]: 4.86 nM
- Maximum binding (RFI) [5]: 39400 RFI
- Kd [6]: 0.237 nM

B11: Anti-BCMA-E6-PP02-G2 FAB (Fab, V domains shown)
VH: EVQLLESGGGLVQPGGSLRLSCAASGFTFSYYAMTWVRQAPGKGLEWVGTISQSVGQVVKYADSVKGRFTISRDNSKNTLYLQMNSLRAEDTAVYYCARSPYSYLHGYYGFDYWGQGTLVTVSS
VL: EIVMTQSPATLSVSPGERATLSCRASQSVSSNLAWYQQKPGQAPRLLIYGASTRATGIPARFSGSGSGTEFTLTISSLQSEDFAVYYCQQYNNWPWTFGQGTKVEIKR
notes: Fab
- Kd [3]: 0.176 nM
- Kd [4]: 5.22 nM
- Maximum binding (RFI) [5]: 40500 RFI
- Kd [6]: 0.728 nM

B12: Anti-CD38-B3-PP11-D1b FAB (Fab, V domains shown)
VH: QVQLVQSGAEVKKPGSSVKVSCKASGIQTRWYSISWVRQAPGQGLEWMGRIIPTGANANYAQKFQGRVTITADESTSTAYMELSSLRSEDTAVYYCARSWPSLGSGWFDIWGQGTLVTVSS
VL: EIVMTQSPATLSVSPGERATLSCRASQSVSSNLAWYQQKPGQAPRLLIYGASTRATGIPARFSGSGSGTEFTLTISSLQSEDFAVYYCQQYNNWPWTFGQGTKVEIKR
notes: Fab
- Kd [7]: 5.8 nM
- Kd [8]: 14.6 nM

B13: Anti-CD38-B3-PP11-D11a FAB (Fab, V domains shown)
VH: QVQLVQSGAEVKKPGSSVKVSCKASGGDFTLYSISWVRQAPGQGLEWMGRIIPTGANANYAQKFQGRVTITADESTSTAYMELSSLRSEDTAVYYCARSWPILGNGWFDIWGQGTLVTVSS
VL: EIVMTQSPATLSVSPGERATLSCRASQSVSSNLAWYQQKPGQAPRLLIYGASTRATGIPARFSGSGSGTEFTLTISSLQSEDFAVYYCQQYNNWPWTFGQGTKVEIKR
notes: Fab
- Kd [7]: 8.2 nM
- Kd [8]: 17.3 nM

B14: Anti-CD38-B3-PP11-E1 FAB (Fab, V domains shown)
VH: QVQLVQSGAEVKKPGSSVKVSCKASGQHKRVYSISWVRQAPGQGLEWMGRIIPTGANANYAQKFQGRVTITADESTSTAYMELSSLRSEDTAVYYCARSWPSLGSGWFDIWGQGTLVTVSS
VL: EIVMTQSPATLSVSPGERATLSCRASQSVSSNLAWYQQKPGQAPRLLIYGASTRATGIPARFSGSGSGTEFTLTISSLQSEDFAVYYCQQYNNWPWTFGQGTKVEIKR
notes: Fab
- Kd [7]: 10.5 nM
- Kd [8]: 26.3 nM

B15: Anti-CD38-B3-PP11-E11 FAB (Fab, V domains shown)
VH: QVQLVQSGAEVKKPGSSVKVSCKASGGDFTLYSISWVRQAPGQGLEWMGRIIPTGANANYAQKFQGRVTITADESTSTAYMELSSLRSEDTAVYYCARSWPSYGKGWFDIWGQGTLVTVSS
VL: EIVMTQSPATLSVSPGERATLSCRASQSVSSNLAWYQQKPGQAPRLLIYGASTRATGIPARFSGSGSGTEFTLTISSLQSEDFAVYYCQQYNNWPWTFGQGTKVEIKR
notes: Fab
- Kd [7]: 2 nM
- Kd [8]: 8.9 nM

B16: Anti-CD38-B3-PP11-H1a FAB (Fab, V domains shown)
VH: QVQLVQSGAEVKKPGSSVKVSCKASGQNERMYSISWVRQAPGQGLEWMGRIIPTGANANYAQKFQGRVTITADESTSTAYMELSSLRSEDTAVYYCARSWPSLGSGWFDIWGQGTLVTVSS
VL: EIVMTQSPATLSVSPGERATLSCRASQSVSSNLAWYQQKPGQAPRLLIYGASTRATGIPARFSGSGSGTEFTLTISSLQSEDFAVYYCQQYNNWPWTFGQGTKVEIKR
notes: Fab
- Kd [7]: 15.3 nM
- Kd [8]: 17.9 nM

B17: Anti-CD38-B3-PP11-H10 FAB (Fab, V domains shown)
VH: QVQLVQSGAEVKKPGSSVKVSCKASGGDFTLYSISWVRQAPGQGLEWMGRIIPTGANANYAQKFQGRVTITADESTSTAYMELSSLRSEDTAVYYCARSWPHYGSGWFDIWGQGTLVTVSS
VL: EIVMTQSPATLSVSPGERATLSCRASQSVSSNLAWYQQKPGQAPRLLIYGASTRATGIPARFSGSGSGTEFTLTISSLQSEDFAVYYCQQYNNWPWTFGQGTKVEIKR
notes: Fab
- Kd [7]: 6.2 nM
- Kd [8]: 22.7 nM

B18: anti-BCMA-UCP01-A10 FAB (Fab, V domains shown)
VH: QVQLVQSGAEVKKPGSSVKVSCKASGYVFSDHIISWVRQAPGQGLEWMGGIIPHGGAPTYAQKFQGRVTITADESTSTAYMELSSLRSEDTAVYYCARDLFDYYPQGFDYWGQGTLVTVSS
VL: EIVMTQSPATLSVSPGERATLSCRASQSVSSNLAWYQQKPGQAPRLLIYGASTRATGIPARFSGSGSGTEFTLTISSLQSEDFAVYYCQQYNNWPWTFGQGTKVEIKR
notes: Fab
- Kd [2]: 214 nM

B19: anti-BCMA-UCP01-E9 FAB (Fab, V domains shown)
VH: EVQLLESGGGLVQPGGSLRLSCAASGFTFSNYAMSWVRQAPGKGLEWVSVISERGAVTVYADSVKGRFTISRDNSKNTLYLQMNSLRAEDTAVYYCARSPYGYSSGVEGYFGFDVWGQGTLVTVSS
VL: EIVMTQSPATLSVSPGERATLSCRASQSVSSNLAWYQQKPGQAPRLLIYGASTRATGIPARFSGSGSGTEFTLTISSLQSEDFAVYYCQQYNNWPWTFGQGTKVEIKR
notes: Fab
- Kd [1]: 236 nM
- Kd [2]: 10 nM

B20: anti-BCMA-PP02-A3 FAB (Fab, V domains shown)
VH: EVQLLESGGGLVQPGGSLRLSCAASGFTFSQYAMSWVRQAPGKGLEWVSIISQDGGVTVYADSVKGRFTISRDNSKNTLYLQMNSLRAEDTAVYYCARSPYGGGSYIPHDSWGQGTLVTVSS
VL: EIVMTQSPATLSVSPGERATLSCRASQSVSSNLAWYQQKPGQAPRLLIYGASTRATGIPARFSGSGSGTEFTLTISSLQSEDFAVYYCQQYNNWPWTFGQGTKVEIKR
notes: Fab
- Kd [2]: 318 nM

B21: anti-BCMA-PP02-C4 FAB (Fab, V domains shown)
VH: EVQLLESGGGLVQPGGSLRLSCAASGFTFTAYDMSWVRQAPGKGLEWVSAISGFGGDTLYADSVKGRFTISRDNSKNTLYLQMNSLRAEDTAVYYCARIGYYYLDSAFDYWGQGTLVTVSS
VL: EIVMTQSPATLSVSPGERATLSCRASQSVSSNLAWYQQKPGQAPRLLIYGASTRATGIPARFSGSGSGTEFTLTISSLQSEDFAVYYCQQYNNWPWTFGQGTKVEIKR
notes: Fab
- Kd [1]: 114 nM
- Kd [2]: 608 nM
